Assay results taken from the DeepSol protein solubility set.

Assay: soluble on expression in E. coli; label from the status in PepcDB or PDB records

| Sequence | soluble on expression in E. coli |
| --- | --- |
| MPLVSLIIRCYNEEKHIGRLLSGVMQQQGIDYEIIIVDSGSTDATVSIAQRYPIQLISIDPQNFSFGRSLNLGCQQASGEYLVFASAHVYPVYQDWLKQLIAPLQTNPQIALSYGKQRGNNQTQFSEHQIFAQWFPDQAQIPQTTPFCNNANAAIRRDLWQKYPYNEDLTGLEDLDWAKRLMQAGYQIAYVPDAEIIHVHQETPQRVRNRYRREAIALKQIFPEQTFSLGDFVRLTVSNTLSDYYYAWQSQQLMTQLWAIPQFRLMQFWGTYQGYHQNNSLNQQLRQTFYYPRPINTITPNVPSKDALKINYAQSDTQLVPDPSPPSPHQLEHHHHHH | soluble |
| MSLKVALVHDWLTNMGGAERVIINLKEIYKEAPIYTSLYNPDKLDDELRNIDVRTSFLQKPKNIKRGHQKLLPFMPMAFESFDLNEYDIVLSSCSSCAKGVVTNPNTMHVCYCHTPMRYAWEYYYEYADEWGLNKLKGKLLKYVMNYIRLWDGVSSKRVDYYIANSQNVAKRIWKHYKRESVVIHPPVRCKLFDISDVNEEYFLIVSRLVPYKRIDLAVEVFNELGLPLVVIGGGKDLDRLKNMAKDNIKFLGRQSDEVIKEYYSKCRAFIFPGEEDFGITPLEAQASGRPVIAYGKGGALETVVSGVTGVFFKEQTVDSLKSAVNEFEKINFDKSVIRRHAEEFDEEIFKKKIREYLSRSYDEFKKLKKWKVEGHHHHHH | soluble |
| MDQNRGSDVGFAVPMLPVNYASATQKMSTLASTSSAGASSSTGSSNQQQQQAAAVIRRRRFSTAKIQPTRIKKVMQSDEDIGRMVQSVPVSIGRAMEHFAEKFLQAAAEATQFTSSKTLNPQHMKQAVLNTPHFSFLESVFKDVALPQQASELNTARTGMTLRGQQMLQEQQNSDFASAILANAQMQMMQMDQQALKQEDGTISPYLVDPQSPAAPLPLYLQGIPSNYPVVQELTATVPLSPSTPTTQLVNGMLGMLKYSKKDSEGQRLTGLKRASTDGDGEDRPKRGRPKKLKPEKCIDDDLYEEASRNIAKEDKDRELMPPPALPIGRP | not soluble |
| STFRERLLHKNLQEHFSNQDLVFLLLTPSIITESCSTHRLEHSLYKPQKGLFHRVPLVVANLGMSEQLGYKTVSGSCMSTGFSRAVQTHSSKFFEEDGSLKEVHKINEMYASLQEELKSICKKVEDSEQAVDKLVKDVNRLKREIEKRRGAQIQAAREKNIQKDPQENIFLCQALRTFFPNSEFLHSCVMSLKNRHVSKSSCNYNHHLDVVDNLTLMVEHTDIPEASPASTPQIIKHKALDLDDRWQFKRSRLLDTQDKRSKADTGSSNQDKASKMSSPETDEEIEKMKGFGEYSRSPTF | not soluble |
| MFDYTDFPEQRQSKIRLILSEEGKVVCTQLSRELNVSEHTIRRDLKELAQSGACKRVYGGAVSLPPEAIDFASRATIDAAQKDRIAQAVIPLIKPNGCVFFDTGTTNLAVAKQIPAGLKFTAVCNSPIIAAELMQHQDVEVIVLGGRIQKEVGGAIGIDTLRQLEKMYFDQCLLGGCAFDANEGLTVFEYDDAEFKKCLVTRSSEVIVALTANKISALTRYRVAECDEITTLVTDDEISPASQSVLKEKNLDVIIARLEHHHHHH | soluble |
| MRRSGPELWKTLTSVSKSGQKKGRRNTRQPVRPLNRFYRIGSSPMKIEFAGLNAPIRMRETENQNLMSIAEQTEDEIRDSMGGTKKILEERDTGKKKRNREKLHPMERGFSGTQLVGQKLGAPPPLDGVNFDDFETYCLEVKRTSNMTNVFGRVHTMSALVVTGNGRGLAGYAVGKAPIHRTTTAIINGMGMASRKLFHVELHEGRTIYQDFYAECRNTRVFAQRRPRGFGLTCHPRLIKICEAIGIKDIYVKVEGSTKNYLALTHAFVTGLLNQETHQQLAERKGLHVVEMSPSRHFLPQIVASPISTELKTEETLEALDRLNLDDFYGEGRYPLRKPKSLPFFSNLEGHLDARWRKHPFRNQESTMIRLIADNMVPRWTRDARAAWADQRNERMTTGVEPMPLGIGLSHVVPKKDD | not soluble |
| GPGGGSEAYFRVESGALGPEENFLSLDDILMSHEKLPVRTETAMPRLGAFFLERSAGAETDNAVPQGSKLELPLWLAKGLFDNKRRILSVELPKIYQEGWRTVFSADPNVVDLHKMGPHFYGFGSQLLHFDSPENADISQSLLQTFIGRFRRIMDSSQNAYNEDTSALVARLDEMERGLFQTGQKGLNDFQCWEKGQASQITASNLVQNYKKRKFTDMED | soluble |
| ETGDIVETATGAGSFTTLLTAAEAAGLVDTLKGDGPFTVFAPTDAAFAALPEGTVEDLLKPENKEKLTEILTYHVVPGEVMSSDLTEGMTAETVEGGALTVTLEGGPKVNGVSISQPDVDASNGVIHVIDGVLMPGA | soluble |
| MAHHHHHHMPLTCRSFCEWALAYMGTQEYTPSIIQQRNSMAAAERDPDDRNVLDFSTYEDYLDQQVTGEDLFYLEDQDAARKIVELGYKGKDVLSREEFEAAQYLARTGPLKRRESAEVITSAGKDVSDSPLLTALAKREELVRTGKLATVLFLRDYVSGQEVSAYIDYGYRLRSENFEAYFKKDKKLLPKRSDLSYYNWKTHTLFYNNSPTFQVLADSTLGLVMKHKRDRKAIHVDPNSPSPGENCSRTVVPCKDYLQAVIYDHVTRRKN | soluble |
| MSDLETVAKFLAESVIASTAKTSERNLRQLETQDGFGLTLLHVIASTNLPLSTRLAGALFFKNFIKRKWVDENGNHLLPANNVELIKKEIVPLMISLPNNLQVQIGEAISSIADSDFPDRWPTLLSDLASRLSNDDMVTNKGVLTVAHSIFKRWRPLFRSDELFLEIKLVLDVFTAPFLNLLKTVDEQITANENNKASLNILFDVLLVLIKLYYDFNCQDIPEFFEDNIQVGMGIFHKYLSYSNPLLEDPDETEHASVLIKVKSSIQELVQLYTTRYEDVFGPMINEFIQITWNLLTSISNQPKYDILVSKSLSFLTAVTRIPKYFEIFNNESAMNNITEQIILPNVTLREEDVELFEDDPIEYIRRDLEGSDTDTRRRACTDFLKELKEKNEVLVTNIFLAHMKGFVDQYMSDPSKNWKFKDLYIYLFTALAINGNITNAGVSSTNNLLNVVDFFTKEIAPDLTSNNIPHIILRVDAIKYIYTFRNQLTKAQLIELMPILATFLQTDEYVVYTYAAITIEKILTIRESNTSPAFIFHKEDISNSTEILLKNLIALILKHGSSPEKLAENEFLMRSIFRVLQTSEDSIQPLFPQLLAQFIEIVTIMAKNPSNPRFTHYTFESIGAILNYTQRQNLPLLVDSMMPTFLTVFSEDIQEFIPYVFQIIAFVVEQSATIPESIKPLAQPLLAPNVWELKGNIPAVTRLLKSFIKTDSSIFPDLVPVLGIFQRLIASKAYEVHGFDLLEHIMLLIDMNRLRPYIKQIAVLLLQRLQNSKTERYVKKLTVFFGLISNKLGSDFLIHFIDEVQDGLFQQIWGNFIITTLPTIGNLLDRKIALIGVLNMVINGQFFQSKYPTLISSTMNSIIETASSQSIANLKNDYVDLDNLEEISTFGSHFSKLVSISEKPFDPLPEIDVNNGVRLYVAEALNKYNAISGNTFLNTILPQLTQENQVKLNQLLVGNRSHHHHHH | soluble |
| GFGCPGNQLKCNNHCKSISCRAGYCDAATLWLRCTCTDCNGKK | soluble |
| MGSDKIHHHHHHMSFELHPRYLEVHLHGRLCGFLCEAGGNTRFVPTDEYRGDNERYTLSLSITLPTEIGREATSAVFDNAFHPAIYNTGGELPPYFAGLLPEGELRKRLESTRTNPEDKDDFGVLASAGNDLPGAIVVKPADVRALPGYVRTYGVTGGADNLEIAVVEGATEGAASVSGVQNKLALSTMRKGERYTLPTKGKVSDIIAKLPAKNDDSQVFNEYVSMHLAAAAGVNIAPIQVLPMSSIDVPDLADLMGKGLHYLAVERFDRAADGGLLHAEDGCQMLGRMPNRKYAKREEYIRLLAALYRLSPKGFENVRQFFLRQAVNTLIGNSDAHLKNFSVIYRDRKLPELSPAYDIVCVAALPNFTSYGQNVAIDEIQRKETMDLYEDIADKAGIPRRIATAAVKEAVSMAHAHWPGLLEKMGASQALRDVIAERLENLPLAKVGRPTRKGA | not soluble |
| MGSSHHHHHHSSGLVPRGSHMLKFDVNTSAVQVLIEHIGNLDRAYEFAERCNEPAVWSQLAKAQLQKGMVKEAIDSYIKADDPSSYMEVVQAANTSGNWEELVKYLQMARKKARESYVETELIFALAKTNRLAELEEFINGPNNAHIQQVGDRCYDEKMYDAAKLLYNNVSNFGRLASTLVHLGEYQAAVDGARKANSTRTWKEVCFACVDGKEFRLAQMCGLHIVVHADELEELINYYQDRGYFEELITMLEAALGLERAHMGMFTELAILYSKFKPQKMREHLELFWSRVNIPKVLRAAEQAHLWAELVFLYDKYEEYDNAIITMMNHPTDAWKEGQFKDIITKVANVELYYRAIQFYLEFKPLLLNDLLMVLSPRLDHTRAVNYFSKVKQLPLVKPYLRSVQNHNNKSVNESLNNLFITEEDYQALRTSIDAYDNFDNISLAQRLEKHELIEFRRIAAYLFKGNNRWKQSVELCKKDSLYKDAMQYASESKDTELAEELLQWFLQEEKRECFGACLFTCYDLLRPDVVLETAWRHNIMDFAMPYFIQVMKEYLTKVDKLDASESLRKEEEQATETQPIVYGQPQLMLTAGPSVAVPPQAPFGYGYTAPAYGQPQPGFGYSM | soluble |
| SKFLDVECLSELQRKLNDLELTDYRVRCQLEAYSCKPAGFDKKLSKSLEQKLVEQLEASPRVLEGSPVGSLEDQSARKTLINLICTLNAAHQDYDFSSLQLSRLKRVQDVRSLQQHVDSLFELFYRQLGLEFRQFLWENIGQIIRPEECEVYSYLPDYESDPYSASGALWSFCYFFYHKNMKKILFFSCTLSTRLAEDSESTESVDEEDFGKESSGLETPFAMFETVI | soluble |
| NLPNIVILATGGTIAGSAAANTQTTGYKAGALGVETLIQAVPELKTLANIKGEQVASIGSENMTSDVLLTLSKRVNELLARSDVDGVVITHGTDTLDESPYFLNLTVKSDKPVVFVAAMRPATAISADGPMNLYGAVKVAADKNSRGRGVLVVLNDRIGSARFISKTNASTLDTFKAPEEGYLGVIIGDKIYYQTRLDKVHTTRSVFDVTNVDKLPAVDIIYGYQDDPEYMYDASIKHGVKGIVYAGMGAGSVSKRGDAGIRKAESKGIVVVRSSRTGSGIVPPDAGQPGLVADSLSPAKSRILLMLALTKTTNPAVIQDYFHAY | soluble |
| MGSDKIHHHHHHMMIKDLKAHYQLLYAQSGDSPAAVQYPTHDSQVVRFSILSHGIDKTCNIIDLGCGLADMLPYLRQNGFTGKYLGCDFVPEFIELAKGKYGEDLNAKFMEFNILQDEIPTGYDYVLISGIFNNKIKNNQEFIELALKESMAKVNIGVVFNALSDYVQYQDETLFYISPLSLFDYCKRNITPYVTLKHDYLTKPGGFPYEFTMSLRHKEAS | not soluble |
| MGSDKIHHHHHHMLQPFLASADTFTQQHFANRHAILLKYPQSSAVTFAAAVWENSFHANALYFDVVGDVAWLPQLLEDLRQLADHHDRLQYSSYAAQSAVITQLQAKHFRAFRRTAMSDYRKVVATPEADVRSRSQLTSAQWHDVVQMSFANYVAAHADNPVTFNHATFEQQLAEAEDTQPSFLVENQQVQAYVFWFEDEPGALTSAWLGGQQFADIRRLLQTALFQVQARYSVVNGEFDDTDIHAWTVYQQLALPDPNPLISWQLLLDATRMP | not soluble |
| MSLSRLPLIGVTACSRQIGLHAYHISGDEYVHAVASAAQGVPVIIPSMAELLSPSDILDGLDGILFTGSPSNIEPFHYQGPASAPGTAHDSARDAATLPLLSAAVASGVPVLGICRGFQEMNVALGGSLHQNVQQVQPFMDHRHAEQPGQPLDAWYAPAHDLHIKAGGVLAGLGLPERIQVNSIHAQGVERLAPGLRVEALAPDGLVEAVSVEASKAFALGVQWHPEWQVSCNPHYLAIFQAFGDACRKRARQRDAEASHKEGHHHHHH | soluble |
| TATRVRPREYALRYPYMQVNRPGMVSWLVFDLDHANALAWDDAGLPAPNLMVRNRKSGHSQLFYAVPSVCTTENARTKPIQYMKAIYAAFAARLDADVDYHGGPVAKTPGHPWWETTEFHSHVYELGELASAVELTVKPWATGPKLDQVSHSRHCILFEQLRYFAYSIVNRERELGSFESFMRSLDAYAYNHNSFLKQGFSENLPLSSIRATVKSVGRWTWDRYTGDRRCHRGAMQLDGSLSLTERQSLAAKRTNELRH | not soluble |
